Data taken from publication PMC4470865 (Current biology : CB, 2015).

Molecular target: actin filaments (Alexa488 label on 3-20% of the actin in the microscopy assays)
Experiment: co-sedimentation

B1: unlabeled Tm1A (recombinant AS-Tm1A, non-muscle Drosophila tropomyosin isoform Tm1A) (natural protein)
chain: MASMTTSIPQGTLLDVLKKKMRQTKEEMEKYKDECEEFHKRLQLEVVRREEAESEVAALNRRIQLLEEDLERSEERLGSATAKLSEASQAADESERIRKALENRTNMEDDKVALLENQLAQAKLIAEEADKKYEEVARKLVLMEQDLERSEEKVELSESKIVELEEELRVVGNNLKSLEVSEEKATQKEETFETQIKVLDHSLKEAEARAEFAERSVQKLQKEVDRLEDDLLNVRGKNKLLQEEMEATLHDIQNM
- Kd: 46 nM
